Test results from patent US20260062487A1 (GRITSTONE BIO, published 2026).
Like-named read-outs stand apart in the source and are kept apart here.

Tests used:
[1] = target: T1, HLA-PEPTIDE target A*01:01_… (G2) on cells (human); assay: flow cytometry, anti IgG PE, A375 9mer cells (1e6 copies per cell)
T1 construct: whole, on cells; also recovered from cell lysates in the IP-MS experiment; also called G2 pHLA; G2 target
Protocol: (§1) A375 transduced with luciferase alone served as the negative control. […] Binding was determined by flow cytometery using an anti IgG-PE antibody for detection.

[2] = target: T2, refolded A*01:01/b2m complex with the ROBO1 peptide … (human, UniProt P61769 21-119); assay: Octet biolayer interferometry, 120 s association and 120 s dissociation
T2 construct: also called ROBO1 pHLA complex

[3] = target: T3, biotinylated refolded G2-pHLA (A*01:01/b2m/…) (human, biotinylated at the C-terminal AviTag); assay: as above
T3 construct: Soluble complex caught on streptavidin sensors or MSD plates; also called G2-peptide A*01:01/b2m complex; WT

CD3 on CD3+ Jurkat cells [4] = target: T4, CD3 on CD3+ Jurkat cells (human, UniProt P07766 23-207); assay: flow cytometry, anti IgG PE, CD3+ Jurkat cells
T4 construct: whole, on cells

[5] = target: T2, refolded A*01:01/b2m complex with the …; assay: BLI (Octet), refolded pHLA
[6] = target: T1, HLA-PEPTIDE target A*01:01_… (G2) on …; assay: flow cytometry, anti IgG PE, A375 9mer cells (1e6 copies per cell); remark: listed apart in the source
Protocol: as §1

CD3 on CD3+ Jurkat cells [7] = target: T4, CD3 on CD3+ Jurkat cells; assay: flow cytometry, anti IgG PE, CD3+ Jurkat cells; remark: listed apart in the source
Protocol: Increasing concentrations of the antibodies were incubated with CD3(+) and CD9(−) Jurkat cells. Binding was determined by flow cytometery using an anti IgG-PE antibody for detection.

[8] = target: T5, G5 pHLA (HLA-B*35:01 with …) on cells (human); assay: flow cytometry, anti IgG PE, LN229 G5 9mer cells (4500 copies per cell)
T5 construct: whole, on cells

[9] = target: T1, HLA-PEPTIDE target A*01:01_… (G2) on …; assay: flow cytometry, A375 cells expressing the CT83 pHLA 9-mer
Protocol: as §1

T4 sequence (P07766 23-207): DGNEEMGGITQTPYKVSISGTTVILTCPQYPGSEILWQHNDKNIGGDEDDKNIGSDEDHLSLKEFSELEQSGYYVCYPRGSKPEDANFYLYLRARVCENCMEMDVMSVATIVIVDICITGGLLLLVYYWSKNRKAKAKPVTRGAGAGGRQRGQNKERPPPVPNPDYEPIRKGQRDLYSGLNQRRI

Row | Binder | EC50 (read off the curve) [1] [nM] | Kd [2] [nM] | koff [2] [s⁻¹] | kon [2] [M⁻¹ s⁻¹] | Kd [3] [nM] | koff [3] [s⁻¹] | kon [3] [M⁻¹ s⁻¹] | EC50 (read off the curve) (CD3 on CD3+ Jurkat cells [4]) [nM] | times less binding affinity than to the G2-peptide A*01:01/b2m complex [5] [fold] | EC50 (read off the curve) [6] [nM] | EC50 (read off the curve) (CD3 on CD3+ Jurkat cells [7]) [nM] | EC50 (read off the curve) [8] [nM] | fold increase in binding against 41-E07 UCHT1v9 [9] [fold]
1 | 41-E07 UCHT1v9 (Format 41 31E07-CD3 bispecific antibody) (bispecific antibody, human IgG1, kappa, also called 41-31E07-UCHT1v9; 41-E07 hUCHT1v9) QVQLVQSGAEVKKPGASVKVSCKASGFTFTNYLIHWVRQAPGQGLEWMGWINPNSGGTNYAQRLQGRVTMTRDTSTSTVYMELSSLRSEDTAVYYCARDYGAGNDYWGQGTLVTVSSGGGGSGGGGSDIQMTQSPSSLSASVGDRVTITCRASQEIRRWLAWYQQKPGKAPKLLIYAASNLQSGVPSRFSGSGSGTDFTLTISSLQPEDFATYYCQQSYSTPYTFGQGTKLEIKGGGGSEPKSSDKTHTCPPCPAPEFEGGPSVFLFPPKPKDTLMISRTPEVTCVVVDVSHEDPEVKFNWYVDGVEVHNAKTKPREEQYNSTYRVVSVLTVLHQDWLNGKEYKCKVSNKALPASIEKTISKAKGQPREPQVYTLPPCREEMTKNQVSLWCLVKGFYPSDIAVEWESNGQPENNYKTTPPVLDSDGSFFLYSKLTVDKSRWQQGNVFSCSVMHEALHNHYTQKSLSLSPGK heavy: QVQLVQSGAEVKKPGASVKVSCKASGFTFTNYLIHWVRQAPGQGLEWMGWINPNSGGTNYAQRLQGRVTMTRDTSTSTVYMELSSLRSEDTAVYYCARDYGAGNDYWGQGTLVTVSSGGGGSGGGGSDIQMTQSPSSLSASVGDRVTITCRASQEIRRWLAWYQQKPGKAPKLLIYAASNLQSGVPSRFSGSGSGTDFTLTISSLQPEDFATYYCQQSYSTPYTFGQGTKLEIKGGGGSGGGGSEVQLVESGGGLVQPGGSLRLSCAASGYSFTGYTMNWVRQAPGKGLEWVALINPYKGVSTYNQKFKDRFTISVDKSKNTAYLQMNSLRAEDTAVYYCARSGYYGDSDWYFDVWGQGTLVTVSSASTKGPSVFPLAPSSKSTSGGTAALGCLVKDYFPEPVTVSWNSGALTSGVHTFPAVLQSSGLYSLSSVVTVPSSSLGTQTYICNVNHKPSNTKVDKRVEPKSCDKTHTCPPCPAPEFEGGPSVFLFPPKPKDTLMISRTPEVTCVVVDVSHEDPEVKFNWYVDGVEVHNAKTKPREEQYNSTYRVVSVLTVLHQDWLNGKEYKCKVSNKALPASIEKTISKAKGQPREPQVCTLPPSREEMTKNQVSLSCAVKGFYPSDIAVEWESNGQPENNYKTTPPVLDSDGSFFLVSKLTVDKSRWQQGNVFSCSVMHEALHNRFTQKSLSLSPGK light: not shown | ~2 | 5.52 | 0.00557 | 1.01e+06 | < 0.001 | < 1e-07 | 566000 | ~2 | 5000 | ~2 | ~3 |  | 
2 | 41-G5(1C12) UCHT1v9 diabody (bispecific antibody, human IgG1, kappa, also called 41-G5(1C12) hUCHT1v9; 41-G5 UCHT1v9) QVQLVQSGAEVKKPGSSVKVSCKASGGTFSNFGVSWLRQAPGQGLEWMGGIIPILGTANYAQKFQGRVTITADESTSTAYMELSSLRSEDTAVYYCATPTNSGYYGPYYYYGMDVWGQGTTVTVSSGGGGSGGGGSDIQMTQSPSSLSASVGDRVTITCRASQSISSWLAWYQQKPGKAPKLLIYAASTLQSGVPSRFSGSGSGTDFTLTISSLQPEDFATYYCQQSYSIPLTFGGGTKVEIKGGGGSEPKSSDKTHTCPPCPAPEFEGGPSVFLFPPKPKDTLMISRTPEVTCVVVDVSHEDPEVKFNWYVDGVEVHNAKTKPREEQYNSTYRVVSVLTVLHQDWLNGKEYKCKVSNKALPASIEKTISKAKGQPREPQVYTLPPCREEMTKNQVSLWCLVKGFYPSDIAVEWESNGQPENNYKTTPPVLDSDGSFFLYSKLTVDKSRWQQGNVFSCSVMHEALHNHYTQKSLSLSPGK heavy: QVQLVQSGAEVKKPGSSVKVSCKASGGTFSNFGVSWLRQAPGQGLEWMGGIIPILGTANYAQKFQGRVTITADESTSTAYMELSSLRSEDTAVYYCATPTNSGYYGPYYYYGMDVWGQGTTVTVSSGGGGSGGGGSDIQMTQSPSSLSASVGDRVTITCRASQSISSWLAWYQQKPGKAPKLLIYAASTLQSGVPSRFSGSGSGTDFTLTISSLQPEDFATYYCQQSYSIPLTFGGGTKVEIKGGGGSGGGGSEVQLVESGGGLVQPGGSLRLSCAASGYSFTGYTMNWVRQAPGKGLEWVALINPYKGVSTYNQKFKDRFTISVDKSKNTAYLQMNSLRAEDTAVYYCARSGYYGDSDWYFDVWGQGTLVTVSSASTKGPSVFPLAPSSKSTSGGTAALGCLVKDYFPEPVTVSWNSGALTSGVHTFPAVLQSSGLYSLSSVVTVPSSSLGTQTYICNVNHKPSNTKVDKRVEPKSCDKTHTCPPCPAPEFEGGPSVFLFPPKPKDTLMISRTPEVTCVVVDVSHEDPEVKFNWYVDGVEVHNAKTKPREEQYNSTYRVVSVLTVLHQDWLNGKEYKCKVSNKALPASIEKTISKAKGQPREPQVCTLPPSREEMTKNQVSLSCAVKGFYPSDIAVEWESNGQPENNYKTTPPVLDSDGSFFLVSKLTVDKSRWQQGNVFSCSVMHEALHNRFTQKSLSLSPGK light: not shown |  |  |  |  |  |  |  | ~4 |  |  |  | ~4 | 
3 | 43-E07 UCHT1v9 (Format 43 31E07-CD3 bispecific antibody) (bispecific antibody, human IgG1, kappa, also called 43-E07 hUCHT1v9; 43-31E07-GGGGS-UCHT1v9) EVQLVESGGGLVQPGGSLRLSCAASGYSFTGYTMNWVRQAPGKGLEWVALINPYKGVSTYNQKFKDRFTISVDKSKNTAYLQMNSLRAEDTAVYYCARSGYYGDSDWYFDVWGQGTLVTVSSGGGGSGGGGSDIQMTQSPSSLSASVGDRVTITCRASQEIRRWLAWYQQKPGKAPKLLIYAASNLQSGVPSRFSGSGSGTDFTLTISSLQPEDFATYYCQQSYSTPYTFGQGTKLEIKGGGGSEPKSSDKTHTCPPCPAPEFEGGPSVFLFPPKPKDTLMISRTPEVTCVVVDVSHEDPEVKFNWYVDGVEVHNAKTKPREEQYNSTYRVVSVLTVLHQDWLNGKEYKCKVSNKALPASIEKTISKAKGQPREPQVYTLPPCREEMTKNQVSLWCLVKGFYPSDIAVEWESNGQPENNYKTTPPVLDSDGSFFLYSKLTVDKSRWQQGNVFSCSVMHEALHNHYTQKSLSLSPGK heavy: QVQLVQSGAEVKKPGASVKVSCKASGFTFTNYLIHWVRQAPGQGLEWMGWINPNSGGTNYAQRLQGRVTMTRDTSTSTVYMELSSLRSEDTAVYYCARDYGAGNDYWGQGTLVTVSSGGGGSGGGGSDIQMTQSPSSLSASVGDRVTITCRASQDIRNYLNWYQQKPGKAPKLLIYYTSRLESGVPSRFSGSGSGTDYTLTISSLQPEDFATYYCQQGNTLPWTFGQGTKVEIKGGGGSGGGGSQVQLVQSGAEVKKPGASVKVSCKASGFTFTNYLIHWVRQAPGQGLEWMGWINPNSGGTNYAQRLQGRVTMTRDTSTSTVYMELSSLRSEDTAVYYCARDYGAGNDYWGQGTLVTVSSASTKGPSVFPLAPSSKSTSGGTAALGCLVKDYFPEPVTVSWNSGALTSGVHTFPAVLQSSGLYSLSSVVTVPSSSLGTQTYICNVNHKPSNTKVDKRVEPKSCDKTHTCPPCPAPEFEGGPSVFLFPPKPKDTLMISRTPEVTCVVVDVSHEDPEVKFNWYVDGVEVHNAKTKPREEQYNSTYRVVSVLTVLHQDWLNGKEYKCKVSNKALPASIEKTISKAKGQPREPQVCTLPPSREEMTKNQVSLSCAVKGFYPSDIAVEWESNGQPENNYKTTPPVLDSDGSFFLVSKLTVDKSRWQQGNVFSCSVMHEALHNRFTQKSLSLSPGK light: DIQMTQSPSSLSASVGDRVTITCRASQEIRRWLAWYQQKPGKAPKLLIYAASNLQSGVPSRFSGSGSGTDFTLTISSLQPEDFATYYCQQSYSTPYTFGQGTKLEIKRTVAAPSVFIFPPSDEQLKSGTASVVCLLNNFYPREAKVQWKVDNALQSGNSQESVTEQDSKDSTYSLSSTLTLSKADYEKHKVYACEVTHQGLSSPVTKSFNRGEC |  |  |  |  |  |  |  |  |  | ~0.3 |  |  | ~10
